Experimental data reported in PMC4361737 (The Journal of investigative dermatology, 2013).

B1: Fras1 CSPG (domain or fragment)
chain: TPSLHVNGSLTLGIGSMKPLDFSLLNIQHQDGRVEDLLFHVVSTPTNGQLLLSRNGKEVQLEKAGHFSWKDVNEKKVRFVHSKEKLRKGYFSLKISDQQFFSEPQLINIQAFSTQAPYVLRNEVLHVSKGERATITTQLLDIRDDDNPQDVVVNVLDPPLHGQLLQMPPAPAASIYQFHLDELSRGLLLYAHDGSDSTSDIIVFQANDGHSFQNILFHVKNIPKNDRALRLVTNSMVWVPEGGMLKITNRILKAQAPGVRADDIIYKITHSRPQFGEVVLLMNLPADSPAGPAEEGHHLPDGRMATPISTFTQQDIDDGVVWYRHLGAPTQSDSFRFQVSSATSAQEHLESHMFNIAILPQAPEAPKLSLGTSLHMTAREDGLSVIQPQSLSFVKAESPSGKIIYNITVPLHPNQGIIEHRDRPHSPIQYFTQEDINQGQIMYRPPVAPPHLQEIMAFSFAGLPESVKFYFTVSDGQHTSPEMALTIHLLHSDLQPPAFQVKAPLLEVSPGGRTSLGLQLLVRDAQVVPEELFFQLQKSPQHGMLVKYTAKSSVTMAAGDTFTYDEVERNVLQYVHDGSSAWEDSLEISVTDGLTVTTSEVKVEVSPSENRGPRLAPGSSLSMTVASQHTAIITRSHLAYVDDSSSDPEIWIRLSSLPLYGVLFRSSGPDMDELSGDSNFTMEDINKKNIRYSAVFETDGHSVTDGFHFSVSDMDGNHVDNQVFTITVTPAENPPHIIAFADLITVDEGGRAPLSLHHFFATEDQDNLQDDAVIKLSALPKYGCIENTGTGDRFGPGANSELEASFPIQDVLENYIYYFQSVHESIEPTHDVFSFYVSDGSGRSEIHSINITIERKNDEPPRMTLRPLGVRLSSGVAISNSSLSLQDLDTPDNELIFVLMKKPDHGHLLRRSTASDPLENGTVLDQGSSFTYQDVLAGLVGYLPGDIYMAVDEFRFSLTDGLHVDTGRMEIYIELPSTNIPHLAINRGLQLSAGSVARITEQHLKATDTDSEAGQVVYIMKEDPGAGRLLMAKADNLEQISVRGPIRSFTQADVSQGQIEYSHGPGEPGGSFAFKFDVVDGEGNKLADQSFSIGVLEDKSPPVVITNRGLVLDENSVEKITTAQLSATDQDSKPTELIYRITTQPQLGHLEHVASPGIQISSFTQADLASRNVQYVRSSGTGKQSDAFSFVLSDGLHEVTQTFPITIHPVDDARPLVQNRGMRVQEGVRKTITEFELKAVDVDTEAESITFTIVQPPRHGTIERTARGQRFHQTSSFTMEDIYQNRVSYSHDGSNSLKDRFTFTVSDGTNPFFIIEEGGEEIMTAAPQQFHVDILPVDDGTPRIVTNLGLQWLEYMDGKATNLITKKELLTVDPDTEDSQLIYEVTTGPMHGYLENKLQPGRAAATFTQEHVNLGLIRYVLYEEKIQKVMDSFQFLVKDSKPNV
B2: AMACO P2 (domain or fragment)
chain: SSSALCTTADPDCRVEPHPCERRTLETVRELAGNALCWRGSRQADTVLALPCPFYSWKRVFQTHPANCYRTICPGPCDSQPCQNGGTCIPEGVDRYHCLCPLAFGGEVNCAPKLSLECRIDVLFLLDSSAGTTLGGFRRAKAFVKRFVQAVLREDSRARVGIASYGRNLMVAVPVGEYQHVPDLIRSLDSIPFSGGPTLTGSALLQVAEHGFGSASRTGQDRPRRVVVLLTESRSQDEVSGPAAHARARELLLLGVGSEILQAELVKITGSPKHVMVHTDPQDLFSQIPELQRRL
modifications: two unusual glycan chains

How the values were obtained:
[1] = target: B2; assay: SPR
[2] = target: B1; assay: SPR

Kd [1] [nM] | Kd [2] [nM] | Binder
42 | – | B1
– | 151 | B2
